Laboratory results from patent US20220403025A1.
pKd: −log10 of the molar value.

Target: L1 (DV1-GV4) antigen: soluble heterodimeric γδ TCR in leucine zipper format (TRDV1/TRGV4) (human)
Experiment: SPR (MASS-2), IgG captured via protein G (100 nM for TS8.2), L1 as analyte, steady-state 1:1 fit

Sequence of L1 (DV1-GV4) antigen: soluble heterodimeric γδ TCR in leucine zipper format (TRDV1/TRGV4) (human) (main, as listed by the source): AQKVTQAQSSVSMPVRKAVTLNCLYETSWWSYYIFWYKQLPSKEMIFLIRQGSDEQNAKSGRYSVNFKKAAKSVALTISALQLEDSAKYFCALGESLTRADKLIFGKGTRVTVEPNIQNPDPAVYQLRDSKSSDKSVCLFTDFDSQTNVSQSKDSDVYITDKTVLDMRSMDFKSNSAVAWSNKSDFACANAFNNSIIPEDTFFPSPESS

pKd: 7.36
Substance: TS8.2 (commercial anti-Vδ1 antibody; Human TCR Vδ1 purified mAb, ThermoFisher TCR1730)
